Source: patent US20230250438

Biological target: Transferrin receptor (TfR) (Mus musculus) (UniProt Q62351)
Assay: pulldown
Settings: B = Bn-dU, unit not given

Sequence of Transferrin receptor (TfR) (Mus musculus) (Q62351 89-763): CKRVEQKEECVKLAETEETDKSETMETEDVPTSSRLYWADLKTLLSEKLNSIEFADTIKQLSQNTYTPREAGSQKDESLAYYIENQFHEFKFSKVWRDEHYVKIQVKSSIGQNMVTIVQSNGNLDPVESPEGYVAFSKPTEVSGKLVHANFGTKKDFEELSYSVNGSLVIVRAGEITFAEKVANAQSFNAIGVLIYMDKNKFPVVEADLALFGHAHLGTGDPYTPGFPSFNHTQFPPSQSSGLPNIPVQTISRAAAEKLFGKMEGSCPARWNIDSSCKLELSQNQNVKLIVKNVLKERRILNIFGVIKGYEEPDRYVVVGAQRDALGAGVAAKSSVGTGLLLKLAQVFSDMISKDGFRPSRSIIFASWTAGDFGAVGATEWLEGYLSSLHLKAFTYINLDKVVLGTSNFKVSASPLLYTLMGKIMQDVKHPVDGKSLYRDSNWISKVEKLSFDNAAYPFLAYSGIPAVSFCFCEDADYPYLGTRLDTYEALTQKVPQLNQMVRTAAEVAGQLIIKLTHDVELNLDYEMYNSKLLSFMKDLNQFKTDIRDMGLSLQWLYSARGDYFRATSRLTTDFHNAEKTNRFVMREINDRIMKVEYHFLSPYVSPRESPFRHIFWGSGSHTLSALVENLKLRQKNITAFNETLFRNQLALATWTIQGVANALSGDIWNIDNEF

Work on “GAATTCAAAAGTGTCGGTGATTTGCCTCGTCGCTCCAATGT [CMe 2]” yielded a Kd (2'-OMe at C15 [Bn-dU: 4,5,12,14,18,21,22,23,27,30,34,39,41, 2'-OMe: 15], SB18, 5 mM MgCl2, 37 C) of 11.4.
Sequence “GAATTCAAAAGTGTCGGTGATTTGCCTCGTCGCTCCAATGT [CMe 3]” has a Kd (2'-OMe at C25 [Bn-dU: 4,5,12,14,18,21,22,23,27,30,34,39,41, 2'-OMe: 25], SB18, 5 mM MgCl2, 37 C) of 11.1.
Sequence “GAATTCAAAAGTGTCGGTGATTTGCCTCGTCGCTCCAATGT [CMe 4]” has a Kd (2'-OMe at C26 [Bn-dU: 4,5,12,14,18,21,22,23,27,30,34,39,41, 2'-OMe: 26], SB18, 5 mM MgCl2, 37 C) of 6.94.
“GAATTCAAAAGTGTCGGTGATTTGCCTCGTCGCTCCAATGT [CMe 7]” showed a Kd (2'-OMe at C33 [Bn-dU at 4,5,12,14,18,21,22,23,27,30,34,39,41, 2'-OMe at C33], Table 11 ratio 3.36 (improved)) of 0.363.
“GAATTCAAAAGTGTCGGTGATTTGCCTCGTCGCTCCAATGT [CMe 8]” was tested, and the Kd (2'-OMe at C35 [Bn-dU at 4,5,12,14,18,21,22,23,27,30,34,39,41, 2'-OMe at C35], SB18, 5 mM MgCl2, 37 C) was 8.46.
With “GAATTCAAAAGTGTCGGTGATTTGCCTCGTCGCTCCAATGT [CMe 9]” the Kd (2'-OMe at C36 [Bn-dU at 4,5,12,14,18,21,22,23,27,30,34,39,41, 2'-OMe at C36], SB18, 5 mM MgCl2, 37 C) was 7.66.
“GAATTCAAAAGTGTCGGTGATTTGCCTCGTCGCTCCAATGT [GMe 2]” showed a Kd (2'-OMe at G11 [Bn-dU: 4,5,12,14,18,21,22,23,27,30,34,39,41, 2'-OMe-G: 11], SB18, 5 mM MgCl2, 37 C) of 9.67.
“GAATTCAAAAGTGTCGGTGATTTGCCTCGTCGCTCCAATGT [GMe 4]” gave a Kd (2'-OMe at G16 [Bn-dU: 4,5,12,14,18,21,22,23,27,30,34,39,41, 2'-OMe: 16], SB18, 5 mM MgCl2, 37 C) of 6.33.
Work on “GAATTCAAAAGTGTCGGTGATTTGCCTCGTCGCTCCAATGT [GMe 8]” yielded a Kd (2'-OMe at G29 [Bn-dU: 4,5,12,14,18,21,22,23,27,30,34,39,41, 2'-OMe: 29], SB18, 5 mM MgCl2, 37 C) of 5.39.
With “GAATTCAAAAGTGTCGGTGATTTGCCTCGTCGCTCCAATGU [UMe 13]” the Kd (2'-OMe-U at 41 [Bn-dU: 4,5,12,14,18,21,22,23,27,30,34,39, 2'-OMe-U: 41], SB18, 5 mM MgCl2, 37 C) was 22.8.
In the case of “GAATTCAAAAGTGTCGGTGATTTGCCTCGTCGCTCCAAUGT [UMe 12]”, the Kd (2'-OMe-U at 39 [Bn-dU: 4,5,12,14,18,21,22,23,27,30,34,41, 2'-OMe-U: 39], SB18, 5 mM MgCl2, 37 C) is reported as 28.
“GAATTCAAAAGTGTCGGTGATTTGCCTCGTCGCUCCAATGT [UMe 11]” showed a Kd (2'-OMe-U at 34 [Bn-dU: 4,5,12,14,18,21,22,23,27,30,39,41, 2'-OMe-U: 34], SB18, 5 mM MgCl2, 37 C) of 17.8.
“GAATTCAAAAGTGTCGGTGATTTGCCTCGUCGCTCCAATGT [UMe 10]” showed a Kd (2'-OMe-U at 30 [Bn-dU: 4,5,12,14,18,21,22,23,27,34,39,41, 2'-OMe-U: 30], SB18, 5 mM MgCl2, 37 C) of 25.2.
Work on “GAATTCAAAAGTGTCGGTGATTTGCCUCGTCGCTCCAATGT [UMe 9]” yielded a Kd (2'-OMe-U at 27 [Bn-dU: 4,5,12,14,18,21,22,23,30,34,39,41, 2'-OMe-U: 27], SB18, 5 mM MgCl2, 37 C) of 18.3.
“GAATTCAAAAGTGTCGGTGATUTGCCTCGTCGCTCCAATGT [UMe 7]” gave a Kd (2'-OMe-U at 22 [Bn-dU: 4,5,12,14,18,21,23,27,30,34,39,41, 2'-OMe-U: 22], Table 11 ratio 2.51 (improved)) of 1.84.
“GAATTCAAAAGTGUCGGTGATTTGCCTCGTCGCTCCAATGT [UMe 4]” was tested, and the Kd (2'-OMe-U at 14 [Bn-dU: 4,5,12,18,21,22,23,27,30,34,39,41, 2'-OMe-U: 14], Table 10 ratio 0.17) was 32.4.
“GAATUCAAAAGTGTCGGTGATTTGCCTCGTCGCTCCAATGT [UMe 2]” showed a Kd (2'-OMe-U at 5 [2'-OMe-U: 5, Bn-dU: 4,12,14,18,21,22,23,27,30,34,39,41], Table 10 ratio 0.10) of 56.4.
In the case of “GAAUTCAAAAGTGTCGGTGATTTGCCTCGTCGCTCCAATGT [UMe 1]”, the Kd (2'-OMe-U at 4 [2'-OMe-U: 4, Bn-dU: 5,12,14,18,21,22,23,27,30,34,39,41], Table 10 ratio 0.13) is reported as 42.6.
